Laboratory results reported in US20230380451A1, “MEANS AND METHODS TO DETOXIFY MYCOTOXINS” (priority 2020, published 2023).

Key:
[1] = Storage stability at different pH values, residual DON transformation activity; assay type: biochemical; conditions: for Relative DON-transformation activity: storage at 30° C.
Description: (§1) To determine the transformation of DON to epi-THS by Akr I-III, described herein, the following assay was performed. An assay buffer was prepared containing 40 ppm DON, 1 mM NADPH in Teorell Stenhagen (TS) buffer, pH 6.0 (Östling and Virtama, Acta Physiologica Scandinavica, 1946, 11:4, 289-293). Tubes containing the assay buffer were transferred in a heating block at 30° C. The reaction was started by addition of Akr I-III to a final concentration of 200 nM in a final reaction volume of 200 μL. Samples were taken before reaction start, and 2, 5, 10, 15 and 20 min after reaction start. DON transformation reactions in these samples were stopped by mixing with absolute methanol at a 1:2 ratio, followed by a 1:100 dilution with 40% methanol. The concentrations of DON and epi-THS in the samples were determined with liquid chromatography-mass spectrometry (LC-MS) on a Sciex 5500 triple quadrupole mass spectrometer coupled to Agilent 1290 series UHPLC system, using the following MS parameters: Acquisition duration: 4 min; Scan Type: MRM (MRM); Polarity: Negative; Ion Source: Turbo Spray.
The storage stability of Akr I-III at different pH values was tested by incubating 1 μM enzyme in TS buffer solutions with a pH of 3.0-10.0 for 4 h at 30° C. in standard 1.5 ml Eppendorf tubes. Every hour, a DON transformation assay was conducted as described in Example 3. The starting activity at time 0 min was set to 100% and the relative residual activities were determined throughout the incubation. For the DON transformation assays, 80 μl of the storage solution were added to an assay reaction with a final volume of 400 μl, which corresponds to a 1:5 dilution of the storage solution. Akr I retained more than 93% activity during 4 hours at 30° C. from pH 4.0-10.0. Akr II retained 30% to 93% activity during 4 hours at 30° C. from pH […] retained 27% to 85% activity during 4 hours at 30° C. from pH 4.0-9.0. Akr I-III retained more than 40% of their activity for 4 hours at 30° C. from pH 4.0 to pH 8.0.

[2] = Storage stability in storage buffer at different temperatures, residual DON transformation activity; assay type: biochemical; conditions: for Relative DON transformation activity: storage buffer
Description: as §1
The storage stability of Akr I-III was tested by incubation of 5 μM enzyme solutions in storage buffer (50 mM Tris pH 9.0, 0.5M NaCl, 50% Glycerol), for 60 min in a thermocycler (Mastercycler, Eppendorf) set to gradient mode from 30° C. to 50° C. Throughout the incubation, samples were removed and placed on ice until DON transformation assays were performed as described in Example 3 to determine enzyme activities. The starting activity at time 0 min was set to 100% and the relative residual activities were determined throughout the incubation. Akr I retained more than 33% activity during 60 min in pH 6 at temperatures from 29.9° C. to 46.0° C. Akr III retained 15% to 90% activity during 20 min in pH 6 at temperatures from 29.9° C. to 40.7° C.

B1: Akr I: artificial amino acid sequence, variant of a wild type aldo-keto reductase (protein)
chain: MRTTEISQGLKVSNLCIGAGPLGGMPTAFGYDVSEERGIATVQAVFDSPINFMDTSSEYGDSEVRIGKVIREGRMPKGFVIATKADAEGDGTARRGDFSAKQVRASFELSLERLGLTHIDVYFLHDPEKFPFEHVMARGGAMEELLRLKDEGLVGLVGVAGGDVVEMARYVDTGNLDILLNYGRYTLLDRSADSLIDKASDAGMAFLNAGPYASGLLAAPRGGSAWYQYAPPNADALQAVDQLHELCESFDVSLRSVALQFSMRDPRITSTVVGLSRPERVRALLDDAAAEIPAELWDQLPAPLNLPWNSLA
modifications: ArkI
retained activity ([1]; during 4 hours at 30° C. from pH 4.0-10.0): more than 93%
Relative DON-transformation activity ([1]; pH 3.0, 0 h (starting activity set to 100%)): 100.0%
Relative DON-transformation activity ([1]; pH 3.0, 1 h): 0.0%
Relative DON-transformation activity ([1]; pH 3.0, 2 h): 0.0%
Relative DON-transformation activity ([1]; pH 3.0, 3 h): 0.0%
Relative DON-transformation activity ([1]; pH 3.0, 4 h): 0.0%
Relative DON-transformation activity ([1]; pH 4.0, 0 h (starting activity set to 100%)): 100.0%
Relative DON-transformation activity ([1]; pH 4.0, 1 h): 100.6%
Relative DON-transformation activity ([1]; pH 4.0, 2 h): 102.8%
Relative DON-transformation activity ([1]; pH 4.0, 3 h): 101.5%
Relative DON-transformation activity ([1]; pH 4.0, 4 h): 93.8%
Relative DON-transformation activity ([1]; pH 5.0, 0 h (starting activity set to 100%)): 100.0%
Relative DON-transformation activity ([1]; pH 5.0, 1 h): 101.0%
Relative DON-transformation activity ([1]; pH 5.0, 2 h): 101.6%
Relative DON-transformation activity ([1]; pH 5.0, 3 h): 100.8%
Relative DON-transformation activity ([1]; pH 5.0, 4 h): 97.9%
Relative DON-transformation activity ([1]; pH 6.0, 0 h (starting activity set to 100%)): 100.0%
Relative DON-transformation activity ([1]; pH 6.0, 1 h): 100.6%
Relative DON-transformation activity ([1]; pH 6.0, 2 h): 101.9%
Relative DON-transformation activity ([1]; pH 6.0, 3 h): 101.1%
Relative DON-transformation activity ([1]; pH 6.0, 4 h): 100.7%
Relative DON-transformation activity ([1]; pH 7.0.0, 0 h (starting activity set to 100%)): 100.0%
Relative DON-transformation activity ([1]; pH 7.0.0, 1 h): 99.6%
Relative DON-transformation activity ([1]; pH 7.0.0, 2 h): 101.4%
Relative DON-transformation activity ([1]; pH 7.0.0, 3 h): 99.7%
Relative DON-transformation activity ([1]; pH 7.0.0, 4 h): 96.1%
Relative DON-transformation activity ([1]; pH 8.0, 0 h (starting activity set to 100%)): 100.0%
Relative DON-transformation activity ([1]; pH 8.0, 1 h): 101.5%
Relative DON-transformation activity ([1]; pH 8.0, 2 h): 102.4%
Relative DON-transformation activity ([1]; pH 8.0, 3 h): 101.1%
Relative DON-transformation activity ([1]; pH 8.0, 4 h): 101.2%
Relative DON-transformation activity ([1]; pH 9.0.0, 0 h (starting activity set to 100%)): 100.0%
Relative DON-transformation activity ([1]; pH 9.0.0, 1 h): 100.9%
Relative DON-transformation activity ([1]; pH 9.0.0, 2 h): 101.0%
Relative DON-transformation activity ([1]; pH 9.0.0, 3 h): 100.8%
Relative DON-transformation activity ([1]; pH 9.0.0, 4 h): 96.6%
Relative DON-transformation activity ([1]; pH 10.0, 0 h (starting activity set to 100%)): 100.0%
Relative DON-transformation activity ([1]; pH 10.0, 1 h): 100.5%
Relative DON-transformation activity ([1]; pH 10.0, 2 h): 101.4%
Relative DON-transformation activity ([1]; pH 10.0, 3 h): 99.8%
Relative DON-transformation activity ([1]; pH 10.0, 4 h): 96.0%
retained activity ([2]; during 60 min in pH 6 at temperatures from 29.9° C. to 46.0° C.): more than 33%
Relative DON transformation activity ([2]; 29.9° C., 0 min (starting activity set to 100%)): 100.00%
Relative DON transformation activity ([2]; 29.9° C., 5 min): 121.5%
Relative DON transformation activity ([2]; 29.9° C., 10 min): 114.8%
Relative DON transformation activity ([2]; 29.9° C., 20 min): 118.9%
Relative DON transformation activity ([2]; 29.9° C., 35 min): 106.2%
Relative DON transformation activity ([2]; 29.9° C., 50 min): 70.1%
Relative DON transformation activity ([2]; 29.9° C., 60 min): 53.7%
Relative DON transformation activity ([2]; 35.3° C., 0 min (starting activity set to 100%)): 100.00%
Relative DON transformation activity ([2]; 35.3° C., 5 min): 132.8%
Relative DON transformation activity ([2]; 35.3° C., 10 min): 97.7%
Relative DON transformation activity ([2]; 35.3° C., 20 min): 101.5%
Relative DON transformation activity ([2]; 35.3° C., 35 min): 109.7%
Relative DON transformation activity ([2]; 35.3° C., 50 min): 84.6%
Relative DON transformation activity ([2]; 35.3° C., 60 min): 47.0%
Relative DON transformation activity ([2]; 37.9° C., 0 min (starting activity set to 100%)): 100.00%
Relative DON transformation activity ([2]; 37.9° C., 5 min): 130.1%
Relative DON transformation activity ([2]; 37.9° C., 10 min): 101.4%
Relative DON transformation activity ([2]; 37.9° C., 20 min): 110.1%
Relative DON transformation activity ([2]; 37.9° C., 35 min): 109.0%
Relative DON transformation activity ([2]; 37.9° C., 50 min): 77.0%
Relative DON transformation activity ([2]; 37.9° C., 60 min): 48.6%
Relative DON transformation activity ([2]; 40.7° C., 0 min (starting activity set to 100%)): 100.00%
Relative DON transformation activity ([2]; 40.7° C., 5 min): 130.2%
Relative DON transformation activity ([2]; 40.7° C., 10 min): 100.7%
Relative DON transformation activity ([2]; 40.7° C., 20 min): 60.5%
Relative DON transformation activity ([2]; 40.7° C., 35 min): 95.8%
Relative DON transformation activity ([2]; 40.7° C., 50 min): 76.1%
Relative DON transformation activity ([2]; 40.7° C., 60 min): 50.0%
Relative DON transformation activity ([2]; 43.4° C., 0 min (starting activity set to 100%)): 100.00%
Relative DON transformation activity ([2]; 43.4° C., 5 min): 133.6%
Relative DON transformation activity ([2]; 43.4° C., 10 min): 111.3%
Relative DON transformation activity ([2]; 43.4° C., 20 min): 79.1%
Relative DON transformation activity ([2]; 43.4° C., 35 min): 75.2%
Relative DON transformation activity ([2]; 43.4° C., 50 min): 60.2%
Relative DON transformation activity ([2]; 43.4° C., 60 min): 52.9%
Relative DON transformation activity ([2]; 46.0° C., 0 min (starting activity set to 100%)): 100.00%
Relative DON transformation activity ([2]; 46.0° C., 5 min): 125.9%
Relative DON transformation activity ([2]; 46.0° C., 10 min): 123.1%
Relative DON transformation activity ([2]; 46.0° C., 20 min): 83.4%
Relative DON transformation activity ([2]; 46.0° C., 35 min): 61.8%
Relative DON transformation activity ([2]; 46.0° C., 50 min): 3.0%
Relative DON transformation activity ([2]; 46.0° C., 60 min): 33.1%
Relative DON transformation activity ([2]; 50.8° C., 0 min (starting activity set to 100%)): 100.00%
Relative DON transformation activity ([2]; 50.8° C., 5 min): 118.6%
Relative DON transformation activity ([2]; 50.8° C., 10 min): 44.2%
Relative DON transformation activity ([2]; 50.8° C., 20 min): 16.3%
Relative DON transformation activity ([2]; 50.8° C., 35 min): 4.9%
Relative DON transformation activity ([2]; 50.8° C., 50 min): 7.5%
Relative DON transformation activity ([2]; 50.8° C., 60 min): 0%
